Results reported in US20090098130A1 (published 2009).
Non-standard residues stand in square brackets, D forms with d. No end group written: not given here. Aib = CC(C)(N)C(=O)O

Target: glucagon-like peptide 1 receptor (GLP-1R)
Assay: cell-based or functional assay

Binder	EC50 (µM), glucose-stimulated insulin secretion (GSIS) assay on pancreatic β cell cultures
H[Aib]EGTFTSDLSKQLEEEAVRLAIEFLKNGGPSSGAPPPS [GA targeting peptide of SEQ ID NO: 10]	< 10 µM
H[Aib]EGTFTSDLSKQLEEEAVRLAIEFLKN [GA targeting peptide of SEQ ID NO: 9]	< 10 µM
